Biological target: the molecule itself
Experiment: SEC-SAXS; purified complexes loaded at 2.55 (CBKP1P2), 0.72 (CBKP1) and 3 mg/ml (CBKP2) on a Bio-SEC3 column; 20 mM Tris pH 8.5, 300 mM NaCl, 5 mM 2-mercaptoethanol, 5% glycerol

B1: CBKP1, four-subunit PaKEOPS complex (PaCgi121/PaBud32/PaKae1/PaPcc1) (complex)
chain 1: MTPKFKNFKHDNSGQVETYLFEVISKYTMLEIKTKFGKLCIAKVKLASESIERALNLCNDNCQIVSAKCHEEVIFATILAIKAFSSGRNTAKTIKGEILLRLAGVKQIKDAIKIIGARKGENLIIYFGVSDPCSSLKDFISSLGLREEPLKPCDEDEVKRGFERAAIIEAL
chain 2: MKLIKQGAEAKIYLAEFSELYFDYPIKVIVKERIKKRYRIPEIDLKLRKERTIREARILRRAKEFGVNVPYVFEVDTKNMIIVMEYIEGERLKELLEKLPMEERLKVCREVGRQIGKLHEAGIVHGDLTTSNMILREGKVYFIDFGLAEFDDTIEAQGVDLHLLKRAMESTHYKWFERGFEEVLKGYIEIRGEDKGREIREKIREIELRGRYRERSWITQ
chain 3: MLALGIEGTAHTLGIGIVSEDKVLANVFDTLTTEKGGIHPKEAAEHHARLMKPLLRKALSEAGVSLDDIDVIAFSQGPGLGPALRVVATAARALAVKYRKPIVGVNHCIAHVEITKMFGVKDPVGLYVSGGNTQVLALEGGRYRVFGETLDIGIGNAIDVFARELGLGFPGGPKVEKLAEKGEKYIELPYAVKGMDLSFSGLLTEAIRKYRSGKYRVEDLAYSFQETAFAALVEVTERAVAHTEKDEVVLVGGVAANNRLREMLRIMTEDRGIKFFVPPYDLCRDNGAMIAYTGLRMYKAGISFRLEETIVKQKFRTDEVEIVW
chain 4: MKPKRVQGKIVIEFPSEDIAEVVYTSVLYEHVSVPYRRSRVNFRREGRRIVLEIEANDSSAMRGTVNSYLRWIKVALDVLNI
With B1 as the protein, how does the “stoichiometry N” value read?
The value was 2.

From publication PMC9889334 (Nature Communications, 2022)
